This series concerns the molecule itself. The experiment in a line: SDS-PAGE and immunoblot of the PLB pentamer.

B1: L31A phospholamban mutant (untagged) (natural protein, human, UniProt P26678 1-52, looked up)
chain: MEKVQYLTRSAIRRASTIEMPQQARQKLQNAFINFCLILICLLLICIIVMLL
For B1, the “stoichiometry N” value is 5.

Source of the values: publication PMC7035975 (Journal of molecular and cellular cardiology, 2019).
